Test results published in patent publication US20040166544A1 (published 2004).
Several values for one entry are separate records, joined by “and”; a condition that tells them apart may be missing. Equal values may be shown once.

Legend:
[1] = target: T1, c-Met/Fc Chimera (R&D Systems, catalog # 358-MT-100) (human, UniProt P08581 25-932); experiment: competition ELISA: displacement of biotinylated HGF from plate-coated c-Met/Fc chimera, Fab, n = 2
T1 construct: extracellular domain; Bought reagent; also called human c-Met-Fc fusion protein; recombinant c-Met protein; Fc part of the bought chimera not given
Experimental: (§1) 96-well Fluoronunc plates were coated with 50 ul of 0.5 ug/ml c-Met/Fc Chimera (R&D Systems, Minneapolis Minn., catalog # 358-MT-100) in phosphate buffered saline (PBS) and the plates were incubated overnight at room temperature. Wells were washed three times with washing buffer (PBS+0.1% Tween 20), blotting the plates on paper towels between each wash. Nonspecific binding in the wells was blocked by the addition of 250 ul of blocking buffer (3.0% milk (Carnation) in PBS) to each well and incubated at room temperature for two hours.
(§2) The c-Met antibodies were diluted in reagent buffer (PBS, 0.5% BSA, 0.05% Tween-20) and titrations were performed in 96 well polypropylene plates. Biotinylated HGF (0.4 ug/ml) (R&D Systems, biotinylated with Pierce #21335 as per manufacturer's instructions) was added to each well. 50 ul of the dilutions were transferred into the Fluoronunc plates containing human c-Met-Fc fusion protein (R&D Systems, #) and the plates were incubated for two hours at room temperature. The plates were washed three times with wash buffer and blotted onto paper towels. 50 ul of europium-labeled Streptavidin (Wallac Perkin Elmer) diluted 1:1000 in Delfia assay buffer (Wallac Perkin Elmer) was added per well and the plates were incubated for one hour at room temperature. The plates were washed seven times with Delfia wash buffer (Tris buffered saline (TBS) supplemented with 0.1% Tween-20) and blotted onto paper towels. 100 ul Delfia enhancer solution (Wallac Perkin Elmer) was added to each well and the plates incubated for 5 minutes on a plate shaker at room temperature. Plates were read on a fluorescence plate reader and analyzed using GraphPad Prism software (GraphPad Software, San Diego, Calif.).
(§3) C-Met antibodies 1A3.3.13 (#HB-11894, ATCC Hybridoma) and 5D5.11.6 (#HB-11895, ATCC Hybridoma) were used as positive controls. MOPC-21 (#M-7894, Sigma) was used as an IgG isotype control and HB-94 (#HB-94, ATCC Hybridoma) was converted into a Fab fragment and used as a Fab isotype control. NK4-Elastase is a kringle to kringle 4 fragment resulting from digesting intact HGF purified from S-114 cells with elastase (Date et al., FEBS Lett. 420:1-6 ([…]).

[2] = target: T2, biotinylated c-Met-Fc (R&D Systems, #358-MT-100/CF, 5.1 biotin per c-Met molecule) (human, UniProt P08581 25-932, biotinylated, 5.1 biotin per c-Met molecule (Pierce #21335)); experiment: SPR (BIAcore), biotinylated c-Met-Fc captured on streptavidin chip, IgG as analyte, bivalent model
T2 construct: extracellular domain; Captured on a streptavidin (SA) chip for the BIAcore study of the IgGs; Fc part of the bought chimera not given
Experimental: The binding properties (on-rate, off-rate and affinity) of c-Met monoclonal antibodies (IgG or Fab versions) with human c-Met extracellular domain was determined using surface plasmon resonance, or BLAcore, technology. For the binding studies with IgG, a low density (<1 ng/mm2) of c-Met-Fc (R&D Systems, #358-MT-100/CF) containing 5.1 biotin per c-Met molecule (prepared with Pierce #21335 as per manufacturer's instructions) was captured onto a SA chip precoated with Streptavidin (BIAcore Inc.). A streptavidin flow cell without adsorbed c-Met-Fc was used as a control cell for non-specificbinding. The antibody sample to be analyzed was prepared in HEPES buffer (0.15M NaCl, 10 mM HEPES, 3.4 mM EDTA, 0.005% surfactant P-20, pH 7.4) to form a set of solutions varied in concentration from 0.78 nM to 100 nM. The HEPES buffer used as the running solution was set at a flow rate of 50 ul/min. Each sample solution was injected over the two flow cells for three minutes, followed by 5 minutes of dissociation. The flow cells were then regenerated with 4.5M MgCl₂ for one minute to remove the bound antibody for the next cycle of binding study. The net sensorgrams (subtraction of sensorgrams from the negative control flow cell as well as that from the buffer blank) obtained for each set of samples were processed simultaneously in a global fitting using a bivalent binding model of the BIAevaluation software program equipped with the system. The on-rate (Kₐ), off-rate (Kd) and binding affinity (KD) were determined from the fitting with KD equal to kd/kₐ.

[3] = target: T1, c-Met/Fc Chimera (R&D Systems, catalog …); experiment: competition ELISA: displacement of biotinylated HGF from plate-coated c-Met/Fc chimera, IgG, n = 2
Experimental: as §1, §2, §3

[4] = target: T1, c-Met/Fc Chimera (R&D Systems, catalog …); experiment: SPR (BIAcore), c-Met-Fc captured on protein A CM5 chip, Fab as analyte, 1:1 Langmuir model
Experimental: For the binding study of Fab fragments derived from antibodies of the invention, a high density (>2 ng/mm²) of protein A was first immobilized covalently onto a CM5 sensorchip using EDC/NHS amine coupling chemistry [. The flow cell containing c-Met-Fc captured by the protein A was used as the positive control while a flow cell containing only protein A was used as the negative control. The Fab sample to be analyzed was as above for antibodies to form a set of solutions with concentration ranged from 3.9 nM to 500 nM. The HEPES buffer used as the running solution was set at a flow rate of 50 ul/min. For each cycle of binding study, low density (<1 ng/mm²) of c-Met-Fc was captured first onto the positive flow cell. Each sample solution was then injected over the two flow cells (one negative and one positive in series) for three minutes followed by 5 minutes of dissociation. The flow cells were then regenerated with 4.5M MgCl₂ for one minute to remove the bound c-Met-Fc/Fab complexes for the next cycle of binding. The net sensorgrams (subtraction of sensorgrams from the negative control flow cell as well as that from the buffer blank) obtained from the set of samples were fitted simultaneously in a global fitting using a Langmuir 1:1 binding model of the BIAevaluation program equipped with the system. The on-rate (Kₐ), off-rate (Kd) and binding affinity (KD) were determined from the fitting with KD equal to kd/kₐ.

[5] = target: c-Met (endogenous, on human cell lines 184B5, HCT-116, DU-145 and NCI H441) (human, UniProt P08581 25-1390); experiment: cell-based or functional assay

B1: c-Met 11978 Fab (Fab, V domains shown)
VH: not shown
VL: NFMLTQPHSVSESPGKTVTISCTRSSGSIAFDYVQWYQQRPGSAPTTVIYEDNQRPSGVPDRFSASIDSSSNSASLTISALKTEDEADYYCQSYDNSNSWVFGGGTKLTVLG
notes: VH and VL limits counted as for the IgG
IC50 [1]: 65.9 nM and > 125 nM

B2: c-Met IgG antibody 12136 (antibody, V domains shown)
VH: QVQLQESGPGLVKPSETLSLTCNVSGGSIRNYFWSWIRQPPGQGLEYIGYIYYSGTTDYNPSLKGRVTISLDTSKTQFSLKLNSVTAADTAFYYCVRGPNKYAFDPWGQGTLVTVSS
VL: SYELTQPPSVSVSPGQTASITCSGDKLGDKFASWYQQKAGQSPVLVIYRDTKRPSGIPERFSGSNSGNTATLTISGTQAMDEADYYCQAWDSSTAVFGTGTKVTVLG
notes: IgG of scFv PGIA-4-A8; also called 12136 IgG; IgG of scFv PGIA-04-A8 (PGIA-4-A8)
Kd [2]: 0.8 nM | koff [2]: 0.000229 s⁻¹ | kon [2]: 294000 M⁻¹ s⁻¹ | IC50 [3]: 1 nM

B3: c-Met 12136 Fab (Fab, V domains shown)
VH: QVQLQESGPGLVKPSETLSLTCNVSGGSIRNYFWSWIRQPPGQGLEYIGYIYYSGTTDYNPSLKGRVTISLDTSKTQFSLKLNSVTAADTAFYYCVRGPNKYAFDPWGQGTLVTVSS
VL: SYELTQPPSVSVSPGQTASITCSGDKLGDKFASWYQQKAGQSPVLVIYRDTKRPSGIPERFSGSNSGNTATLTISGTQAMDEADYYCQAWDSSTAVFGTGTKVTVLG
notes: VH and VL limits counted as for the IgG; also called Fab fragment derived from c-Met antibody 12136
Kd [4]: 6 nM | koff [4]: 0.00101 s⁻¹ | kon [4]: 168000 M⁻¹ s⁻¹

B4: c-Met IgG antibody 11986 (antibody, V domains shown)
VH: EVQLVQSGAEVKKPGATLKVSCKVSAYTFTDYSMHWVQQAPGKGLKWMGLIDLEDGNTIYAEEFQDRVTITADTSTDTAYMDLSSLRSEDTAVFYCAISPLRGLTADVFDVWGQGTLVTVSS
VL: QSALTQPASASGSPGQSITISCTGTSSDIGRYDFVSWYQRQPGKAPKLMIYDVINRPSGVSSRFSGSKSGNTASLTISGLQAEDEADYYCSSYAGSTTLYVFGTGTKLTVLG
notes: IgG of scFv PGIA-3-B1; also called 11986 IgG; IgG of scFv PGIA-03-B1 (PGIA-3-B1)
IC50 [3]: 0.52 nM

B5: c-Met 11986 Fab (Fab, V domains shown)
VH: EVQLVQSGAEVKKPGATLKVSCKVSAYTFTDYSMHWVQQAPGKGLKWMGLIDLEDGNTIYAEEFQDRVTITADTSTDTAYMDLSSLRSEDTAVFYCAISPLRGLTADVFDVWGQGTLVTVSS
VL: QSALTQPASASGSPGQSITISCTGTSSDIGRYDFVSWYQRQPGKAPKLMIYDVINRPSGVSSRFSGSKSGNTASLTISGLQAEDEADYYCSSYAGSTTLYVFGTGTKLTVLG
notes: as for B1
IC50 [1]: 80 nM

B6: c-Met 12075 Fab (Fab, V domains shown)
VH: QVQLVQSGPEVKKPGASVEVSCKASGYTFTGDYMHWVRQAPGQGPEWMGWINPQTGVTKYAQKFQGRVTMARDTSINTAYMELRGLRSDDTAVYYCVREDHNYDLWSAYNGLDVWGQGTLVTVSS
VL: QSVLTQPPSVSAAPGQKVTISCSGSSSNIGNNHVSWYQQLAGTAPKLLIFDNDKRPSGIPDRFSGSKSGTSATLGITGLQTGDEADYYCGTWDKSPTDIYVFGSGTKLTVLG
notes: VH and VL limits counted as for the IgG; also called Fab fragment derived from c-Met antibody 12075
IC50 [1]: > 125 nM

B7: c-Met IgG antibody 12123 (antibody, V domains shown)
VH: QVQLQESGPGLVKPSATLSLTCAVSGGSISSNHWWSWVRQSPGKGLEWIGEIYTYGGANYNPSLKSRVDISMDKSKNQFSLHLSSVTAADTAVYYCGRHLTGYDCFDIWGQGTLVTVSS
VL: QAVLTQPSSVSGAPGQRVTISCTGSSSNIGAGYDVHWYQQLPGTAPKLLIYGNSNRPSGVPDRFSGSKSGTSASLAITGLQAEDEADYYCQSYDSSLSGVFGTGTQLTVLS
notes: IgG of scFv PGIA-3-B2; The VL reverse cloning primer RH62 codes ...TVLG whereas the scFv entry ends ...TVLS; also called 12123 IgG; IgG of scFv PGIA-03-B2 (PGIA-3-B2)
Kd [2]: 9.7 nM | koff [2]: 0.00329 s⁻¹ | kon [2]: 338000 M⁻¹ s⁻¹ | IC50 [3]: 0.5 nM | scatter assay on DU-145 cells, mean object area, agonist (alone), 100 nM IgG; the smaller the number, the more scattering [5]: 234 mean object area | scatter assay on DU-145 cells, mean object area, antagonist (w/30 pM HGF), 100 nM IgG; the smaller the number, the more scattering [5]: 226 mean object area

B8: c-Met IgG antibody 12133 (antibody, V domains shown)
VH: QVQLQESGPGLVKPSGTLSLTCAVSGGSISTSDWWSWVRRPPGKGLEWIGEIYHSGSTNYHPSLKSRVTISLDKSKNQFSLKLSSVTAADTAVYYCAREGGHSGSYPLDYWGRGTLVTVSS
VL: NFMLTQPHSVSESPGKTATISCTGSGGSIARSYVQWYQQRPGRAPSIVIYEDYQRPSGVPDRFSGSIDSSSNSASLTITGLKTDDEADYYCQSSDDNNNVVFGGGTKVTVLG
notes: IgG of scFv PGIA-4-A5; also called 12133 IgG; IgG of scFv PGIA-04-A5 (PGIA-4-A5)
Kd [2]: 6 nM | koff [2]: 0.000598 s⁻¹ | kon [2]: 98900 M⁻¹ s⁻¹ | IC50 [3]: 0.58 nM | scatter assay on DU-145 cells, mean object area, agonist (alone), 100 nM IgG; the smaller the number, the more scattering [5]: 241 mean object area | scatter assay on DU-145 cells, mean object area, antagonist (w/30 pM HGF), 100 nM IgG; the smaller the number, the more scattering [5]: 230 mean object area

B9: c-Met 12119 Fab (Fab, V domains shown)
VH: QLQLQESGPGLVKPSGTLSLTCAVSGGSISTSDWWSWVRRPPGKGLEWIGEIYHSGSTNYHPSLKSRVTISLDKSKNQFSLKLSSVTAADTAVYYCAREGGHSGSYPLDYWGRGTLVTVSS
VL: NFMLTQPHSVSESPGKTVTISCARSSGSIASNYVQWYQQRPGSSPTTLIYEDRQRPSGVPDRFSGSIDSSSNSASLTISGLKTEDEADYYCQSYDSSDHVVFGGGTKLTVLG
notes: VH and VL limits counted as for the IgG; also called Fab fragment derived from c-Met antibody 12119
IC50 [1]: 10.7 nM

B10: c-Met 12133 Fab (Fab, V domains shown)
VH: QVQLQESGPGLVKPSGTLSLTCAVSGGSISTSDWWSWVRRPPGKGLEWIGEIYHSGSTNYHPSLKSRVTISLDKSKNQFSLKLSSVTAADTAVYYCAREGGHSGSYPLDYWGRGTLVTVSS
VL: NFMLTQPHSVSESPGKTATISCTGSGGSIARSYVQWYQQRPGRAPSIVIYEDYQRPSGVPDRFSGSIDSSSNSASLTITGLKTDDEADYYCQSSDDNNNVVFGGGTKVTVLG
notes: VH and VL limits counted as for the IgG; also called Fab fragment derived from c-Met antibody 12133
Kd [4]: 8.8 nM | koff [4]: 0.00245 s⁻¹ | kon [4]: 280000 M⁻¹ s⁻¹
